Where only a bound is given, the exact number is not on record here.

The text below walks through data of WO2021228904A1 (dated 2021).

For experiment [1], the target named is T1, stabilized prefusion SARS-CoV-2 S ectodomain (SARS-CoV-2 (Wuhan-Hu-1), UniProt P0DTC2 15-1138). The experiment in a line: not named there; ELISA in Example 4.
For experiment [2], the target named is T1, stabilized prefusion SARS-CoV-2 S …. Description: SPR.
For experiment [3] the target is unchanged. Description: cell-based or functional assay.

B1: SEQ ID NOs: 57/61 (HCVR/LCVR) (antibody, V domains shown)
VH: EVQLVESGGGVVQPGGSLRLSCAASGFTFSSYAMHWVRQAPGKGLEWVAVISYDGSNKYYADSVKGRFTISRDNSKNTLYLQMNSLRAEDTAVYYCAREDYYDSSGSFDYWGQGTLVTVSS
VL: QSVLTQPASVSGSPGQSITISCTGTSSDVGGYNYVSWYQQHPGKAPKLMIYDVSNRPSGVSNRFSGSKSGNTASLTISGLQAEDEADYYCSSYTSSSTRHWVFGGGTKLTVL
On to B1, for which the binding result in experiment [1] was “binds”.

B2: SEQ ID NOs: 353/357 (HCVR/LCVR) (antibody, V domains shown)
VH: EVQLVQSGAEVKKPGSSVKVSCKASGGTFSSYAISWVRQAPGQGLEWMGGIIPIFGTTNYAQKFQGRVTITTDESTSTAYMELSSLRSEDTAVYYCARVYSYDSSGYYLEYWGQGTRVTVSS
VL: EIVLTQSPATLSLSPGERATLSCRASQSVSSYLAWYQQKPGQAPRLLIYDASNRATGIPARFSGSGSGTDFTLTISSLEPEDFAVYYCQQRSNWPPSITFGQGTRLEIK
B2: the binding result in experiment [1] was “binds”.

B3: SEQ ID NOs: 461/465 (HCVR/LCVR) (antibody, V domains shown)
VH: EVQLVESGAEVKKPGSSVKVSCKASGGTFSSYAISWVRQAPGQGLEWMGGIIPIFGTANYAQKFQGRATITTDESTSTAYMELSSLGSEDTAVYYCARTHSYDNSGQYFDYWGQGTMVTVSS
VL: DIVMTQSPATLSLSPGERATLSCRASQSVSSFLAWYQQKPGQAPRLLIYDASNRATGIPARFSGSGSGTDFTLTISSLEPEDFAVYYCQQRSNWPPRLTFGGGTKVDIK
In the case of B3, the binding result in experiment [1] was “binds”.

B4: SEQ ID NOs: 661/665 (HCVR/LCVR) (antibody, V domains shown)
VH: EVQLVESRAEMKKPGESLKISCKGSGYTFTNHWIAWVRQMPGKGLEWMGIIYPGDSDTRYSPSFEGQVTISADKSISTAYLQWSSLKASDTAMYYCARRGYTYGADFYGLDVWGQGTRVTVSS
VL: not shown
Turning to B4, in experiment [1], the binding result is recorded as “binds”.

B5: SEQ ID NOs: 621/625 (HCVR/LCVR) (antibody, V domains shown)
VH: QVQLVQSGAEVKKPGASVKVSCKVSGYTLTELSMHWVRQAPGKGLEWMGGFDPEDGETIYAQKFQGRVTMTEDTSTDTAYMELSSLRSEDTAVYYCATAYSVDTAMVRGVGYWGQGTLVTVSS
VL: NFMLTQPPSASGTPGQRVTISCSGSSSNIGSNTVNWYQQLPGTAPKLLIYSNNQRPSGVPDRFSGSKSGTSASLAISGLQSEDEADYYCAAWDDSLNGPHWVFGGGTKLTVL
Consider B5, for which the binding result in experiment [1] was “binds”.

B6: SEQ ID NOs: 65/69 (HCVR/LCVR) (antibody, V domains shown)
VH: QLQLVESGPGLVKPSETLSLTCTVSGGSISSYFWSWIRQPPGKGLEWIGYIYYSGSTNYNPSLKSRVTISVDTSKNQFSLKLSSVTAADTAVYYCARHSQGWLQQAVAFDIWGQGTMVTVSS
VL: not shown
Regarding B6, in experiment [1], the binding result is listed as “binds”.

B7: SEQ ID NOs: 637/641 (HCVR/LCVR) (antibody, V domains shown)
VH: QVQLVESGGGLVQPGRSLRLSCAASGFTFDDYAMHWVRQAPGKGLEWVSGISWNSGSIGYADSVKGRFTISRDNAKNSLYLQMNSLRAEDTALYYCAKAEPEVGGYDYYMDVWGKGTMVTVSS
VL: not shown
Regarding B7, the binding result in experiment [1] is reported as “binds”.

B8: SEQ ID NOs: 41/45 (HCVR/LCVR) (antibody, V domains shown)
V domain 1: EVQLVQSGGGLVQPGRSLRLSCAASGFTFGEYAMHWVRQAPGKGLEWVSGISWNSGSIDYADSVKGRFTISRDNAKNSLYLQMNSLRAEDTALYYCAKDMGEAVAGTHYGMDVWGQGTMVTASS
V domain 2: QSALTQPPSVSVSPGQTASIPCSGDKLGDIYACWYQQKPGQSPVLVIYQDTKRPSGIPERFSGSNSGNTATLTISGTQAMDEADYYCQAWGSTTAKVFGGGTKLTVP
On to B8, for which the binding result in experiment [1] is given as “binds”.

B9: SEQ ID NOs: 605/609 (HCVR/LCVR) (antibody, V domains shown)
VH: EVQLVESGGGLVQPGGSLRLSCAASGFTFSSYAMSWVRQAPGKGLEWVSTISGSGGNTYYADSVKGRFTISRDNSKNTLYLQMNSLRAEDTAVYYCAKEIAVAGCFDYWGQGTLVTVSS
VL: QTVVTQPPSVSVSPGQTARITCSGDALPKQYAYWYQQKPGQAPVLVIYKDSERPSGIPERFSGSSSGTTVTLTISGVQAEDEADYYCQSADSSGTYRVFGGGTKLTVL
Turning to B9, the binding result in experiment [1] is “binds”.

B10: COVA1-18 (antibody, V domains shown)
VH: EVQLVESGGGLVQPGGSLRLSCAASGFTVSSNYMSWVRQAPGKGLEWVSVIYSGGSTYYADSVKGRFTISRDNSKNTLYLQMNSLRAEDTAVYYCARVEWAAAGTFYWGQGTLVTVSS
VL: QSALTQEPSLTVSPGGTVTLTCGSSTGAVTSGHYPYWFQQKPGQAPRTLIYDTSNKRSWTPARFSGSLLGGKAALTLSGAQPEDEAEYYCLLSYSGVWVFGGGTKLTVL
B10 yielded a Kd in experiment [2] of at most 1 nM. The “IC50, neutralization of live SARS-CoV-2 virus” value in experiment [3] was 0.067 nM.

B11: SEQ ID NOs: 421/425 (HCVR/LCVR) (antibody, V domains shown)
VH: EVQLVQSGAEVKKPGASVKVSCKASGYTFTSYDINWVRQATGQGLEWMGWMNPNSGNTGYAQKFQGRVTMTRNTSISTAYMELSSLRSEDTAVYYCARVVGSSWYPVDAFDIWGQGTRVTVSS
VL: QSVLTQPASVSGSPGQSITISCTGTSSDVGGYNYVSWYQQHPGKAPKLMIYDVSNRPSGVSNRFSGSKSGNTASLTISGLQAEDEADYYCSSYTSSSTLVVFGGGTKLTVL
As for B11, the binding result in experiment [1] is reported as “binds”.

B12: SEQ ID NOs: 557/561 (HCVR/LCVR) (antibody, V domains shown)
VH: EVQLVESGGGVVQPGRSLRLSCAASGFTFSSYAMHWVRQAPGKGLEWVAVISYDGSYKYYADSVKGRFTISRDNSKNTLYLQMNSLTAEDTAVYYCAREGSRQWLVIYFDYWGQGTLVTVSS
VL: AIRMTQSPSSLSASVGDRVTITCRASQSISSYLNWYQQKPGKAPKLLIYAASSLQSGVPSRFSGSGSGTDFTLTISSLQPEDFATYYCQQSYTTFIYTFGQGTKLEIK
On to B12, for which the binding result in experiment [1] is given as “binds”.

B13: 001_P1G11 (antibody, V domains shown)
VH: EVQLVQSGTEVKKPGASVKVSCKASGYTFPGYYIHWVRQAPGQGLEWMGWINPNSGVAKSAQKFQGRVTMTRDSSISTVYLDVTSDDTAVYYCARDLVWATVSGTMDVWGQGTTVTVSS
VL: QSALTQPPSASGSPGQSVTISCTGTSSDIGTYNYVSWYQQHPGKAPKLMIYEVTKRPSGVPDRFSGSKSGNTASLTVSGLQADDEGDYYCSSYVGNNNWVFGGGTKLTVL
Turning to B13, the binding result in experiment [1] was “binds”.

B14: SEQ ID NOs: 653/657 (HCVR/LCVR) (antibody, V domains shown)
VH: EVQLVESGGGLVQPGRSLRLSCAASGFTFDDYAMHWVRQAPGKGLEWVSGISWNSGSIGYADSVKGRFTISRDNAKNSLYLQMNSLRAEDTALYYCAKMGPDPAHDYGRKNDAFDIWGQGTMVTVSS
VL: DIVMTQSPSSLSASVGDRVTITCRASQSMSSYLNWYQQKPGKAPKLLIYAASSLQSGVPSRFSGSGSGTDFTLTISSLQPEDFATYYCQQSYSTLTFGGGTKLEIK
Regarding B14, the binding result in experiment [1] is given as “binds”.
